Laboratory results reported in patent US20240410900A1.

Key:
[1] = biological target: non-targeted IgG-IL2 (interleukin-2 fused to the C-terminus of a heavy chain of a germline antibody, which is not binding to a target); test: bridging ELISA, IgG-IL2-Bi and -Dig, binder 0.00 ng/mL (blank)
[2] = biological target: non-targeted IgG-IL2 (interleukin-2 fused to the C-terminus of a heavy chain of a germline antibody, which is not binding to a target); test: bridging ELISA, IgG-IL2-Bi and -Dig, binder 63 ng/mL assay / 1250 ng/mL matrix
[3] = biological target: TCB (T-cell bispecific format) drug antibody; test: bridging ELISA, drug-Bi and drug-Dig, human pooled serum, binder 0.24 ng/mL assay / 4.9 ng/mL matrix
[4] = biological target: targeted IgG-IL2 (interleukin-2 fused to the C-terminus of a heavy chain of an antibody specifically binding to a therapeutic target); test: as above
[5] = biological target: non-targeted IgG-IL2 (interleukin-2 fused to the C-terminus of a heavy chain of a germline antibody, which is not binding to a target); test: as above
[6] = biological target: TCB (T-cell bispecific format) drug antibody; test: bridging ELISA, drug-Bi and drug-Dig, human pooled serum, binder 63 ng/mL assay / 1250 ng/mL matrix
[7] = biological target: targeted IgG-IL2 (interleukin-2 fused to the C-terminus of a heavy chain of an antibody specifically binding to a therapeutic target); test: as above
[8] = biological target: TCB (T-cell bispecific format) drug antibody; test: bridging ELISA, drug-Bi and drug-Dig, human pooled serum, binder 125 ng/mL assay / 2500 ng/mL matrix
[9] = biological target: targeted IgG-IL2 (interleukin-2 fused to the C-terminus of a heavy chain of an antibody specifically binding to a therapeutic target); test: as above
[10] = biological target: non-targeted IgG-IL2 (interleukin-2 fused to the C-terminus of a heavy chain of a germline antibody, which is not binding to a target); test: as above
[11] = biological target: TCB (T-cell bispecific format) drug antibody; test: bridging ELISA, drug-Bi and drug-Dig, human pooled serum, binder 250 ng/mL assay / 5000 ng/mL matrix
[12] = biological target: targeted IgG-IL2 (interleukin-2 fused to the C-terminus of a heavy chain of an antibody specifically binding to a therapeutic target); test: as above
[13] = biological target: non-targeted IgG-IL2 (interleukin-2 fused to the C-terminus of a heavy chain of a germline antibody, which is not binding to a target); test: as above
[14] = biological target: non-targeted IgG-IL2 (interleukin-2 fused to the C-terminus of a heavy chain of a germline antibody, which is not binding to a target); test: bridging ELISA, IgG-IL2-Bi and -Dig, binder 31 ng/mL assay / 625 ng/mL matrix
[15] = biological target: non-targeted IgG-IL2 (interleukin-2 fused to the C-terminus of a heavy chain of a germline antibody, which is not binding to a target); test: bridging ELISA, IgG-IL2-Bi and -Dig, binder 500 ng/mL assay / 10000 ng/mL matrix
[16] = biological target: non-targeted IgG-IL2 (interleukin-2 fused to the C-terminus of a heavy chain of a germline antibody, which is not binding to a target); test: bridging ELISA, IgG-IL2-Bi and -Dig, binder 0.5 ng/mL assay / 10 ng/mL matrix
[17] = biological target: TCB (T-cell bispecific format) drug antibody; test: bridging ELISA, drug-Bi and drug-Dig, human pooled serum, binder 2.0 ng/mL assay / 39 ng/mL matrix
[18] = biological target: targeted IgG-IL2 (interleukin-2 fused to the C-terminus of a heavy chain of an antibody specifically binding to a therapeutic target); test: as above
[19] = biological target: non-targeted IgG-IL2 (interleukin-2 fused to the C-terminus of a heavy chain of a germline antibody, which is not binding to a target); test: as above
[20] = biological target: non-targeted IgG-IL2 (interleukin-2 fused to the C-terminus of a heavy chain of a germline antibody, which is not binding to a target); test: bridging ELISA, IgG-IL2-Bi and -Dig, binder 0.2 ng/mL assay / 4.9 ng/mL matrix
[21] = biological target: non-targeted IgG-IL2 (interleukin-2 fused to the C-terminus of a heavy chain of a germline antibody, which is not binding to a target); test: bridging ELISA, IgG-IL2-Bi and -Dig, binder 16 ng/mL assay / 313 ng/mL matrix
[22] = biological target: non-targeted IgG-IL2 (interleukin-2 fused to the C-terminus of a heavy chain of a germline antibody, which is not binding to a target); test: bridging ELISA, IgG-IL2-Bi and -Dig, binder 0.1 ng/mL assay / 2.4 ng/mL matrix
[23] = biological target: TCB (T-cell bispecific format) drug antibody; test: bridging ELISA, drug-Bi and drug-Dig, human pooled serum, binder 31 ng/mL assay / 625 ng/mL matrix
[24] = biological target: targeted IgG-IL2 (interleukin-2 fused to the C-terminus of a heavy chain of an antibody specifically binding to a therapeutic target); test: as above
[25] = biological target: non-targeted IgG-IL2 (interleukin-2 fused to the C-terminus of a heavy chain of a germline antibody, which is not binding to a target); test: as above

B1: multivalent anti-PG antibody derived from clone 1.7.24 (mixed Pool 2, 3, 4) (antibody, V domains shown)
VH: EVKLLESGGGLVQPGGSLKLSCAASGFDFSRYWMNWVRQAPGKGLEWIGEITPDSSTINYTPSLKDKFIISRDNAKNTLYLQMIKVRSEDTALYYCVRPYDYGAWFASWGQGTLVTVSA
VL: QAVVTQESALTTSPGETVTLTCRSSTGAVTTSNYANWVQEKPDHLFTGLIGGTNKRAPGVPARFSGSLIGDKAALTITGAQTEDEAIYFCALWYSNHWVFGGGTKLTVL
modifications: lysine amines derivatised with SATP or MHS and cross-linked (sites not given)
A signal [AU] [1] of 0.053 AU, a signal [AU] [2] of 2.85 AU and a signal [AU] [3] of 0.0645 AU were found for B1 in this work. It also gave a signal [AU] [4] of 0.055 AU, a signal [AU] [5] of 0.045 AU and a signal [AU] [6] of 2.86 AU. It also gave a signal [AU] [7] of 2.63 AU, a signal [AU] [8] of 3.05 AU and a signal [AU] [9] of 3.05 AU. The signal [AU] [10] was 1.4 AU, the signal [AU] [11] was 2.99 AU and the signal [AU] [12] was 2.99 AU. It also gave a signal [AU] [13] of 2.17 AU, a signal [AU] [14] of 1.89 AU and a signal [AU] [15] of 3.09 AU. It also gave a signal [AU] [16] of 0.0825 AU, a signal [AU] [17] of 0.195 AU and a signal [AU] [18] of 0.148 AU. The signal [AU] [19] was 0.0615 AU, the signal [AU] [20] was 0.0645 AU and the signal [AU] [21] was 0.996 AU. It also gave a signal [AU] [22] of 0.058 AU, a signal [AU] [23] of 2.09 AU and a signal [AU] [24] of 1.65 AU. For the same binder, the signal [AU] [25] was 0.408 AU.
